Assay [1] deals with HLA-A2 (human). As to the kind of experiment: T2 bioassay (peptide 50 µg/ml + b2m 3 µg/ml, overnight), flow cytometry, stained with pan class I MAb W6/32.
In assay [2] the target is HLA-A2 (human). Put plainly: T2 bioassay (peptide 50 µg/ml + b2m 3 µg/ml, overnight), flow cytometry, stained with anti-HLA-A2 MAb. A general note: Flow cytometry measures light scatter and fluorescence of single cells or particles in a stream.

B1: wild-type ras5-14(Gly12) peptide (peptide)
peptide: KLVVVGAGGV
notes: also called ras5-14(G12); normal ras 10-mer
As to B1, the MFI was found to be 523 with HLA-A2 [1] and 285 with HLA-A2 [2].
